This note sets out measurements from article PMC5703266.

This experiment has as its target recombinant soluble tissue factor sTF (1–219) (UniProt P13726).
Sequence of UniProt P13726 (P13726 33-251): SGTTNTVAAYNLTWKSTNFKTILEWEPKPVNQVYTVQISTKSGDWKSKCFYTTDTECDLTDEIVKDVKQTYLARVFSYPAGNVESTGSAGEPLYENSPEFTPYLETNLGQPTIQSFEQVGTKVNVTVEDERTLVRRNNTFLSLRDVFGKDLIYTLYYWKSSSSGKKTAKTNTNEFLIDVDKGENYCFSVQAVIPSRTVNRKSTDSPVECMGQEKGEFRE

Consider “coagulation factor VIIa (FVIIa) (enzyme)”, for which the activation of FX in solution, kcat/KM came out at 663 M⁻¹ s⁻¹.
